# Results as given in paper PMC2635894 (Biochemistry, 2008).
# Positions count from the first letter of the chain named. coumarin = not defined here
# T1: HDAC8 (histone deacetylase 8) (Homo sapiens, UniProt Q9BY41, D101N)
# T1 sequence (Q9BY41 1-377 D101N): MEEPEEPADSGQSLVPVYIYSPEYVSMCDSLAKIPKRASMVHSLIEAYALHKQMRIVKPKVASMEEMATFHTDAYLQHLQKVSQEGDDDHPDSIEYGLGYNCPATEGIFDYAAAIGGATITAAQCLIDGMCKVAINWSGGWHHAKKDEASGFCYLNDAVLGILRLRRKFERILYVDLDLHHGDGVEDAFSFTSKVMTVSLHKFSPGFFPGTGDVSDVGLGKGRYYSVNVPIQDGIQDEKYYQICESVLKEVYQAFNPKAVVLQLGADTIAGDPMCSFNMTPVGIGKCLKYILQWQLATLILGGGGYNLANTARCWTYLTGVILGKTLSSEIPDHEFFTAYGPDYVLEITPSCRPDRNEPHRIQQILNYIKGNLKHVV
# T2: HDAC8 (histone deacetylase 8) (Homo sapiens, UniProt Q9BY41, D101E)
# T2 sequence (Q9BY41 1-377 D101E): T1 sequence (Q9BY41 1-377 D101N) with N101E
# T3: HDAC8 (histone deacetylase 8) (Homo sapiens, UniProt Q9BY41, D101A)
# T3 sequence (Q9BY41 1-377 D101A): T1 sequence (Q9BY41 1-377 D101N) with N101A
# T4: D101E HDAC8 (human histone deacetylase 8, D101E variant) (human, UniProt Q9BY41 1-377, D101E)
# T4 sequence: T1 sequence (Q9BY41 1-377 D101N) with N101E
# T5: D101N HDAC8 (human histone deacetylase 8, D101N variant) (human, UniProt Q9BY41 1-377, D101N)
# T5 sequence: T1 sequence (Q9BY41 1-377 D101N)
# T6: D101A HDAC8 (human histone deacetylase 8, D101A variant) (human, UniProt Q9BY41 1-377, D101A)
# T6 sequence: T1 sequence (Q9BY41 1-377 D101N) with N101A
# T7: D101L HDAC8 (human histone deacetylase 8, D101L variant) (human, UniProt Q9BY41 1-377, D101L)
# T7 sequence: T1 sequence (Q9BY41 1-377 D101N) with N101L
# How the values were obtained:
# [1] = molecular target: T1, HDAC8 (histone deacetylase 8); test: X-ray crystal structure; format: binding
# [2] = molecular target: T2, HDAC8 (histone deacetylase 8); test: X-ray crystal structure; format: binding
# [3] = molecular target: T3, HDAC8 (histone deacetylase 8); test: X-ray crystal structure; format: binding
# [4] = molecular target: T4, D101E HDAC8 (human histone deacetylase …); test: cell-based or functional assay
# [5] = molecular target: T5, D101N HDAC8 (human histone deacetylase …); test: cell-based or functional assay
# [6] = molecular target: T6, D101A HDAC8 (human histone deacetylase …); test: cell-based or functional assay
# [7] = molecular target: T7, D101L HDAC8 (human histone deacetylase …); test: cell-based or functional assay
"KM of deacetylation (Fluor de Lys assay, Co2+ enzyme, 25°C, pH 8.0) [4]","kcat/KM of deacetylation (Fluor de Lys assay, Co2+ enzyme, 25°C, pH 8.0) [4]","KM of deacetylation (Fluor de Lys assay, Co2+ enzyme, 25°C, pH 8.0) [5]","kcat/KM of deacetylation (Fluor de Lys assay, Co2+ enzyme, 25°C, pH 8.0) [5]","KM of deacetylation (Fluor de Lys assay, Co2+ enzyme, 25°C, pH 8.0) [6]","kcat/KM of deacetylation (Fluor de Lys assay, Co2+ enzyme, 25°C, pH 8.0) [6]","KM of deacetylation (Fluor de Lys assay, Co2+ enzyme, 25°C, pH 8.0) [7]",Molecule,X-ray crystal structure (2.65 Å) [1],X-ray crystal structure (2.85 Å) [2],X-ray crystal structure (2.55 Å) [3]
,,,,,,,"CN(C)c1ccc(C(=O)NCCCCCCC(=O)NO)cc1 [M344, 4-(dimethylamino)-N-[7-(hydroxyamino)-7-oxoheptyl]-benzamide]",The alternate conformer is stabilized by a hydrogen bond interaction with N101 in D101N HDAC8,"Two conformations of the bound inhibitor are observed in the active sites of D101E, D101A and D101N HDACs","Two conformations of the bound inhibitor are observed in the active sites of D101E, D101A and D101N HDACs"
140 μM,1100 M^−1s^−1,> 1000 μM,0.23 M^−1s^−1,> 1000 μM,0.23 M^−1s^−1,> 1000 μM,Ac-RHK(Ac)K(Ac)-coumarin (reading uncertain) [acetylated tetrapeptide substrate (N-acetyl-arginine-histidine-acetyllysine-acetyllysine-coumarin)],,,
